Reference: patent US10287554B2, “Induced pluripotent stem cell model for Fabry disease and use thereof” (KOREA ADVANCED INSTITUTE OF SCIENCE AND TECHNOLOGY, priority 2013, dated 2019)

Experiments:
Assay type in all cases: cell-based, human
Settings in all cases: 10 μg/ml for 5 days, compared with before treatment (FIG. 15)
[1] = tested on: FB-iPSCs (Fabry disease patient originated iPSCs); experiment: Gb3 deposit by anti-Gb3 immunofluorescent staining in FB-iPSCs after Fabrazyme treatment
Description: (§1) Particularly, the FB-iPSCs prepared in Example <1-2> were treated with phosphate buffered saline (PBS) containing 4% formaldehyde, followed by fixing at room temperature for 15 minutes. The cells were treated with 0.1% triton X-100 to give permeability to the cell membrane. After the treatment, the cells were added with 4% normal donkey serum, followed by blocking at room temperature for 1 hour. The cells were treated with the primary antibody such as anti-OCT4 antibody (1:300, R&D Systems, USA), anti-NANOG antibody (1:300, Cell signaling technology, USA), anti-SSEA-4 antibody (1:300, R&D Systems, USA), anti-SOX2 rabbit antibody (BD Transduction Laboratories, USA), anti-Tra-1-81 antibody (1:300, Millipore, USA) or anti-Tra-1-60 antibody (1:300, Millipore, USA), followed by culture overnight at 4° C. Then, the cells were washed several times with PBST (PBS containing 0.1% Tween-20). The cells were treated with Alexa Fluor 488 or Alexa Fluor 594-conjugated secondary antibody (Invitrogen, USA), followed by further culture for 1 hour, leading to immunofluorescent staining of FB-iPSCs.
To investigate whether or not the pharmacologic treatment during the FB-iPSC differentiation was effective in improving Fabry disease, the differentiation of vascular cells was induced from FB-iPSCs and then the cells were treated with Fabrazyme, the α-galactosidase recombinant protein. […]

[2] = tested on: vascular endothelial cells differentiated from FB-iPSCs; experiment: Gb3 deposit by anti-Gb3 immunofluorescent staining in FB-iPSC originated vascular endothelial cells after Fabrazyme treatment
Description: as §1
(§2) Particularly, the FB-iPSCs developed by the same manner as described in Example <1-2> were chopped in even sizes of 300˜500 μm in diameter by using a 10 μl syringe needle. […]

[3] = tested on: vascular smooth muscle cells differentiated from FB-iPSCs; experiment: Gb3 deposit by anti-Gb3 immunofluorescent staining in FB-iPSC originated vascular smooth muscle cells after Fabrazyme treatment
Description: as §1, §2

B1: Fabrazyme: the α-galactosidase recombinant protein (GLA recombinant protein), belonging to agalsidase beta (protein, UniProt P06280 32-429, looked up)
Alpha-galactosidase A: LDNGLARTPTMGWLHWERFMCNLDCQEEPDSCISEKLFMEMAELMVSEGWKDAGYEYLCIDDCWMAPQRDSEGRLQADPQRFPHGIRQLANYVHSKGLKLGIYADVGNKTCAGFPGSFGYYDIDAQTFADWGVDLLKFDGCYCDSLENLADGYKHMSLALNRTGRSIVYSCEWPLYMWPFQKPNYTEIRQYCNHWRNFADIDDSWKSIKSILDWTSFNQERIVDVAGPGGWNDPDMLVIGNFGLSWNQQVTQMALWAIMAAPLFMSNDLRHISPQAKALLQDKDVIAINQDPLGKQGYQLRQGDNFEVWERPLSGLAWAVAMINRQEIGGPRSYTIAVASLGKGVACNPACFITQLLPVKRKLGFYEWTSRLRSHINPTGTVLLQLENTMQMSLKDLL
- Gb3 deposit [1]: significantly reduced and hardly detected
- Gb3 deposit [2]: significantly reduced and hardly detected
- Gb3 deposit [3]: significantly reduced and hardly detected
